According to paper PMC8225329, “Molecular and Mechanistic Characterization of PddB, the First PLP-Independent 2,4-Diaminobutyric Acid Racemase Discovered in an Actinobacterial D-Amino Acid Homopolymer Biosynthesis” (Frontiers in Microbiology, 2021):

Experiments:
[1] = substrate: NCC[C@@H](N)C(=O)O; test: initial-velocity racemase assay, FDLA (Marfey) LC-MS; Lineweaver-Burk; format: biochemical, Streptoalloteichus hindustanus; details: D to L direction, no cofactor, 100 mM TAPS-NaOH pH 8.5, 30°C
Source text: (§1) initial-velocity racemase assay, FDLA (Marfey) LC-MS; Lineweaver-Burk on PddB

[2] = substrate: NCC[C@H](N)C(=O)O; test: as above; format: biochemical, Streptoalloteichus hindustanus; details: L to D direction, no cofactor, 100 mM TAPS-NaOH pH 8.5, 30°C
Source text: as §1

B1: PddB (Streptoalloteichus hindustanus) (protein)
chain: MSDQHNQVLDSELTAFRERVVEGVRFDTLRFCIMHGDGNVIMIVDERLSGLAAESVTSTLARELCQSFTVPKVDGVAFVRPTVSPLRMTYFERDGTHAQMCGNALRCLTRYGVERGYLSTEDSVETDDGVKRVSFVDGEARAALGPGREYQQVRDNWYFAFSGLPHLVVVMDDLDAFNAVNVRVDGAKLAHDEELCRQLNHPEGLHVNYLHRGEDHIAIRTFEVGVEDETKACGTGVAATGYIAHRAWGMPYPLRVRVPGGVMTAEDGEHGLTISGVTGYLFTEDETPVANVFQRSVL
notes: full length, C-terminal His6 tag, pET-21b(+), E. coli Rosetta 2 (DE3), Ni-NTA; 33 kDa; monomer; C-terminal domain given as 163-295
In the case of B1, the Km [1] is reported as 6.1 ± 1.0 mM, the Vmax [1] is reported as 136 µmol/min/mg and the Vmax/Km [1] is reported as 22200 µL/min/mg. It also gave a kcat [1] of 75 ± 5 s⁻¹, a kcat/Km [1] of 12200 M⁻¹ s⁻¹ and a Km [2] of 10.1 ± 1.9 mM. The Vmax [2] was 210 µmol/min/mg, the Vmax/Km [2] was 20800 µL/min/mg and the kcat [2] was 116 ± 12 s⁻¹. The kcat/Km [2] was 11400 M⁻¹ s⁻¹.
